Assay results as given in the supplement of paper PMC6379048.

Experiments:
LSM2 = target: T1, LSM2 (UniProt Q9Y333); test: Kd (EC50 corrected by depletion factor)
T1 sequence: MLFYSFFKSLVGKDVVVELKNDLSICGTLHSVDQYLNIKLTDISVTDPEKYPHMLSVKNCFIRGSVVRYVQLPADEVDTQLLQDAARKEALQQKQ
Procedure, shortened: (§1)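 Free RNA oligos (0 nM to 30 μM) were pre-incubated with HEK293-FT lysate (2.5 mg protein/well) for 1 h at 4°C, followed by 30 min at 4°C with the same 5′-amino-C6 oligos coupled to NHS-Sepharose beads. Bound proteins were quantified by label-free LC-MS/MS and normalised to the control. EC50 was derived from a four-parameter log-logistic fit, and Kd was obtained by multiplying EC50 by a protein-dependent depletion factor.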

LSM3 = LSM3 (UniProt P62310); test: Kd (EC50 corrected by depletion factor)
Sequence of LSM3 (P62310 whole entry): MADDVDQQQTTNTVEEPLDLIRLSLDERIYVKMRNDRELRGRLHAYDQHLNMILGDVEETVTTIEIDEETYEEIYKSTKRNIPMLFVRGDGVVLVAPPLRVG
Procedure, shortened: as §1

MSI1 = MSI1 (UniProt O43347); test: Kd (EC50 corrected by depletion factor)
Sequence of MSI1 (O43347 whole entry): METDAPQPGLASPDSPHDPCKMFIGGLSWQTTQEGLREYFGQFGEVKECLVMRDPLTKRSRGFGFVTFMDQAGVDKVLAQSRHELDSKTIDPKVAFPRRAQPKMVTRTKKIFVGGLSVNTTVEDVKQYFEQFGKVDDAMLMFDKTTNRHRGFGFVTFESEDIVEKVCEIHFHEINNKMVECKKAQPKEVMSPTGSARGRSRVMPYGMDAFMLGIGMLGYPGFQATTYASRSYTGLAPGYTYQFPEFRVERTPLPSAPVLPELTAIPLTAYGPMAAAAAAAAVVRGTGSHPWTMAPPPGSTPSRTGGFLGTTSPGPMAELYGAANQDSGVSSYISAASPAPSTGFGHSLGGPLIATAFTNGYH
Procedure, shortened: as §1

RBMS2 = target: T2, RBMS2 (UniProt Q15434); test: Kd (EC50 corrected by depletion factor)
T2 sequence: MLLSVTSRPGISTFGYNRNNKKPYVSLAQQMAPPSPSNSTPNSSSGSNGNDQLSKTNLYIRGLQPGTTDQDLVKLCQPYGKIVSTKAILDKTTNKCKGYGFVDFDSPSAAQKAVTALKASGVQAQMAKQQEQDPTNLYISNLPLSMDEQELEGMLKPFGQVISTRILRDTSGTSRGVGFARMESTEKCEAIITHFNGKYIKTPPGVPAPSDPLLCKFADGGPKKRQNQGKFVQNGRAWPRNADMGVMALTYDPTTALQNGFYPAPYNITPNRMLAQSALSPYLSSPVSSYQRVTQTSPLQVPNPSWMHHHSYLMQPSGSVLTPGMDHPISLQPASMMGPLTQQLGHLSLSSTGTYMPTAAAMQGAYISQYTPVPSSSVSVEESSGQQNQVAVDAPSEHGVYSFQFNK
Procedure, shortened: as §1

TFIP11 = target: T3, TFIP11 (UniProt Q9UBB9); test: Kd (EC50 corrected by depletion factor)
T3 sequence: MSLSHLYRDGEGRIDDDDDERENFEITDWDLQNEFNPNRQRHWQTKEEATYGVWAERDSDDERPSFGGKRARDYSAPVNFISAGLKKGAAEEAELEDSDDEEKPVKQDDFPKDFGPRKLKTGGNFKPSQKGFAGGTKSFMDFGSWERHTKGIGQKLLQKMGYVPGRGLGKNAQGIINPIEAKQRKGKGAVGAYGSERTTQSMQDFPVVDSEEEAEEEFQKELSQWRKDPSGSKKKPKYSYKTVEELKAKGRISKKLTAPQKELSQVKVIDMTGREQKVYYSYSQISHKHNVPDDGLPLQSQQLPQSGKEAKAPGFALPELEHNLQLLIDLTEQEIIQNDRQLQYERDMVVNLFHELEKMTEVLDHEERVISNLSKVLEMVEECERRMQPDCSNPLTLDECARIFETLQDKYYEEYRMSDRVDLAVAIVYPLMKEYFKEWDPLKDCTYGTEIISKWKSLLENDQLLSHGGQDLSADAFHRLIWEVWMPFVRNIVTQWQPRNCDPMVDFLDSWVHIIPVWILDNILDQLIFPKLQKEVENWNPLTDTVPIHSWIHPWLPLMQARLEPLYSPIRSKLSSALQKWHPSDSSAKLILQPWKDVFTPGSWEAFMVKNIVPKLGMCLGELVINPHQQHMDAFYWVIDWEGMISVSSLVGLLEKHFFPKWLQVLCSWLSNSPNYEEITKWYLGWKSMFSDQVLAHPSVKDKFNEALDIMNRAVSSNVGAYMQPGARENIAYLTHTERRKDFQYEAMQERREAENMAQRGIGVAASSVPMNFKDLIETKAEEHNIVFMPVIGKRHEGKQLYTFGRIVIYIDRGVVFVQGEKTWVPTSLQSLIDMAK
Procedure, shortened: as §1

ZNF830 = target: T4, ZNF830 (UniProt Q96NB3); test: Kd (EC50 corrected by depletion factor)
T4 sequence: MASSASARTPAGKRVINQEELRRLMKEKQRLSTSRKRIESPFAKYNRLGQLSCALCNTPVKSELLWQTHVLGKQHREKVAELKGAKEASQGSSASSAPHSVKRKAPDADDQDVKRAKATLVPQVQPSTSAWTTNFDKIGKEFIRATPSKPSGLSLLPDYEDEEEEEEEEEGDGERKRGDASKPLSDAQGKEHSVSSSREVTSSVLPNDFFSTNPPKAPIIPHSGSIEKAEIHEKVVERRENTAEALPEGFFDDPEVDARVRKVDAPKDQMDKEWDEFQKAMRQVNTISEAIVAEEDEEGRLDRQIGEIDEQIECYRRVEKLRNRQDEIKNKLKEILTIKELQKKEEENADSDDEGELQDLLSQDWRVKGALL
Procedure, shortened: as §1

CPSF3 = target: T5, CPSF3 (UniProt Q9UKF6); test: EC50 of free RNA motif oligo competing protein binding to immobilised probe
T5 sequence: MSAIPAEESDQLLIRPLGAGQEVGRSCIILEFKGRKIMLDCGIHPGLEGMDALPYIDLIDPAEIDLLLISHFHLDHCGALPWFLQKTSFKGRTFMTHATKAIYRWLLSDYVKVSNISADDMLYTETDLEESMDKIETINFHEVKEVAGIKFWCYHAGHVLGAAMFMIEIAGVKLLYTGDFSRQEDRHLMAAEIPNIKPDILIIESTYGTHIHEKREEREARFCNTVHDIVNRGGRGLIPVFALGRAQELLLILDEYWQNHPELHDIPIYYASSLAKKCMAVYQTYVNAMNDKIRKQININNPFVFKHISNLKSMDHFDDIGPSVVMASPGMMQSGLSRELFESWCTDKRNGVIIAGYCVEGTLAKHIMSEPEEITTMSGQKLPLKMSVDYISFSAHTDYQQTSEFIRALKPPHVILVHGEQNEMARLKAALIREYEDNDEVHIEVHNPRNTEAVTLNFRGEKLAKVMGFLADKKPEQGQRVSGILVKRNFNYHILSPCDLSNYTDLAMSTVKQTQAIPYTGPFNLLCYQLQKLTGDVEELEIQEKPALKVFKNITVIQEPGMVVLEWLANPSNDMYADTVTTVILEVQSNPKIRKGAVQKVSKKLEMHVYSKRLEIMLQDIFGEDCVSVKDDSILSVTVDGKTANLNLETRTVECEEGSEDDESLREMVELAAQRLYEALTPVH
Procedure, shortened: as §1

LRPPRC = LRPPRC (UniProt P42704); test: as above
Procedure, shortened: as §1

| Sequence | Kd (LSM2) [nM] | Kd (LSM3) [nM] | Kd (MSI1) [nM] | Kd (RBMS2) [nM] | Kd (TFIP11) [nM] | Kd (ZNF830) [nM] | EC50 (CPSF3) [nM] | EC50 (LRPPRC) [nM] |
| --- | --- | --- | --- | --- | --- | --- | --- | --- |
| AAUAAA | 52.7 | 45 | 3110 | 158 | 569 | 379 | 57.4 | 2880 |
| CUGUCCU | – | – | – | – | – | – | – | 2270 |
| UAUUUAU | 309 | 307 | 373 | 274 | 1230 | 228 | 598 | – |
